Laboratory results published in the supplement of paper PMC11246515.
± gives the standard deviation of the averaged measurements.

Assay: total protein half-life in vivo (active degradation + dilution); higher = more stable protein
[1] = E. coli NCM3722 delta-clpP delta-lon delta-hslV, growth: N-lim chemostat, doubling time 6 h
[2] = E. coli NCM3722 delta-clpP, growth: N-lim chemostat, doubling time 6 h
[3] = E. coli NCM3722 delta-hslV, growth: N-lim chemostat, doubling time 6 h
[4] = E. coli NCM3722 delta-smpB, growth: N-lim chemostat, doubling time 6 h
[5] = wild type E. coli NCM3722, growth: C-lim chemostat, doubling time 3 h
[6] = wild type E. coli NCM3722, growth: C-lim chemostat, doubling time 12 h
[7] = wild type E. coli NCM3722, growth: N-lim chemostat, doubling time 6 h
[8] = wild type E. coli NCM3722, growth: N-lim chemostat, doubling time 12 h
[9] = wild type E. coli NCM3722, growth: P-lim chemostat, doubling time 6 h
[10] = wild type E. coli NCM3722, growth: P-lim chemostat, doubling time 12 h
[11] = E. coli NCM3722 delta-lon, growth: N-lim chemostat, doubling time 6 h
[12] = wild type E. coli NCM3722, growth: C-lim chemostat, doubling time 6 h

Row | Sequence | total protein half-life in vivo [1] [h] | total protein half-life in vivo [2] [h] | total protein half-life in vivo [3] [h] | total protein half-life in vivo [4] [h] | total protein half-life in vivo [5] [h] | total protein half-life in vivo [6] [h] | total protein half-life in vivo [7] [h] | total protein half-life in vivo [8] [h] | total protein half-life in vivo [9] [h] | total protein half-life in vivo [10] [h] | total protein half-life in vivo [11] [h] | total protein half-life in vivo [12] [h]
1 | MRLGTFHKKKRFYINKIKINFLSFLFRNKINNQITDPAQVKSCLIIHDNNKLGDLIVLSSIYRELYSKGVKITLLTNRKGGEFLSNNKNIFEFCIKESTGFLEMLTLCKHLRDLQFDIVLDPFETMPSFKHSLILSSLKDSYILGFDHWYKRYYSFYHPHDECLKEHMSTRAIEILKHIYGEGKFSTNYDLHLPVDVEDKIKEFIGDTRIVIINPLGAKKICRLTFEQIKVIYQEVKTHFENYRIIFTGLPQDLLTIPILEIETLPFDEFIYTVALTKYSDFVISVDTALVHIAAAYHKPTLAFYPNSRTPEYPSHLIWSPNHHKSIQIVSPTYTVKDIDTETLTNSVKRLSCIDKK | 5.5 ± 0.61 | 6.56 ± 1.5 | 5.9 ± 0.57 | 5.44 ± 0.1 | 2.96 ± 0.088 | 11.5 ± 0.51 | 5.67 ± 0.47 | 12.8 ± 1.3 | 5.23 ± 0.19 | 12.2 ± 0.22 | – | –
2 | MRLIITFLMAWCLSWGAYAATAPDSKQITQELEQAKAAKPAQPEVVEALQSALNALEERKGSLERIKQYQQVIDNYPKLSATLRAQLNNMRDEPRSVSPGMSTDALNQEILQVSSQLLDKSRQAQQEQERAREIADSLNQLPQQQTDARRQLNEIERRLGTLTGNTPLNQAQNFALQSDSARLKALVDELELAQLSANNRQELARLRSELAEKESQQLDAYLQALRNQLNSQRQLEAERALESTELLAENSADLPKDIVAQFKINRELSAALNQQAQRMDLVASQQRQAASQTLQVRQALNTLREQSQWLGSSNLLGEALRAQVARLPEMPKPQQLDTEMAQLRVQRLRYEDLLNKQPLLRQIHQADGQPLTAEQNRILEAQLRTQRELLNSLLQGGDTLLLELTKLKVSNGQLEDALKEVNEATHRYLFWTSDVRPMTIAWPLEIAQDLRRLISLDTFSQLGKASVMMLTSKETILPLFGALILVGCSIYSRRYFTRFLERSAAKVGKVTQDHFWLTLRTLFWSILVASPLPVLWMTLGYGLREAWPYPLAVAIGDGVTATVPLLWVVMICATFARPNGLFIAHFGWPRERVSRGMRYYLMSIGLIVPLIMALMMFDNLDDREFSGSLGRLCFILICGALAVVTLSLKKAGIPLYLNKEGSGDNITNHMLWNMMIGAPLVAILASAVGYLATAQALLARLETSVAIWFLLLVVYHVIRRWMLIQRRRLAFDRAKHRRAEMLAQRARGEEEAHHHSSPEGAIEVDESEVDLDAISAQSLRLVRSILMLIALLSVIVLWSEIHSAFGFLENISLWDVTSTVQGVESLEPITLGAVLIAILVFIITTQLVRNLPALLELAILQHLDLTPGTGYAITTITKYLLMLIGGLVGFSMIGIEWSKLQWLVAALGVGLGFGLQEIFANFISGLIILFEKPIRIGDTVTIRDLTGSVTKINTRATTISDWDRKEIIVPNKAFITEQFINWSLSDSVTRVVLTIPAPADANSEEVTEILLTAARRCSLVIDNPAPEVFLVDLQQGIQIFELRIYAAEMGHRMPLRHEIHQLILAGFHAHGIDMPFPPFQMRLESLNGKQTGRTLTSAGKGRQAGSL | 6.45 ± 0.14 | 6.87 ± 1.2 | 6.3 ± 0.62 | 5.67 ± 0.52 | 3.35 ± 0.12 | 13.1 ± 1.4 | 6.49 ± 0.46 | 13.3 ± 2.1 | 5.95 ± 0.7 | 12.8 ± 0.24 | 6.27 ± 0.29 | 6.73 ± 0.79
3 | MRLTSKGRYAVTAMLDVALNSEAGPVPLADISERQGISLSYLEQLFSRLRKNGLVSSVRGPGGGYLLGKDASSIAVGEVISAVDESVDATRCQGKGGCQGGDKCLTHALWRDLSDRLTGFLNNITLGELVNNQEVLDVSGRQHTHDAPRTRTQDAIDVKLRA [P0AGK8] | 5.43 ± 0.76 | 2.85 ± 0.1 | 1.38 ± 0.36 | 1.04 ± 0.058 | 1.22 ± 0.076 | 2.04 ± 0.57 | 1.057 ± 0.0037 | 1.37 ± 0.1 | 1.53 ± 0.5 | 2.18 ± 0.6 | 1.43 ± 0.34 | 1.76 ± 0.058
4 | MRMNMSDFATFFAVARNQSFRAAGDELGLSSSAISHSIKTLEQRLKIRLFNRTTRSVSLTEAGSNLYERLRPAFDEIQIMLDEMNDFRLTPTGTLKINAARVAARIFLMSLLVGFTREYPDIKVELTTDDSLVDIVQQGFDAGVRLSCIVEKDMISVAIGPPVKLCVAATPEYFARYGKPRHPHDLLNHQCVVFRYPSGKPFHWQFAKELEIAVAGNIILDDVDAELEAVLMGAGIGYLLYEQIKEYLDTGRLECVLEDWSTERPGFQIYYPNRQYMSCGLRAFLDYVKTGQICQSQRHRPQ | 5.54 ± 0.06 | – | – | – | – | – | – | – | – | – | – | –
